T1: human Siglec-5 (human, UniProt O15389 17-551)
T1 construct: also called CHO-S5; CHO-S hSiglec-5
T1 sequence: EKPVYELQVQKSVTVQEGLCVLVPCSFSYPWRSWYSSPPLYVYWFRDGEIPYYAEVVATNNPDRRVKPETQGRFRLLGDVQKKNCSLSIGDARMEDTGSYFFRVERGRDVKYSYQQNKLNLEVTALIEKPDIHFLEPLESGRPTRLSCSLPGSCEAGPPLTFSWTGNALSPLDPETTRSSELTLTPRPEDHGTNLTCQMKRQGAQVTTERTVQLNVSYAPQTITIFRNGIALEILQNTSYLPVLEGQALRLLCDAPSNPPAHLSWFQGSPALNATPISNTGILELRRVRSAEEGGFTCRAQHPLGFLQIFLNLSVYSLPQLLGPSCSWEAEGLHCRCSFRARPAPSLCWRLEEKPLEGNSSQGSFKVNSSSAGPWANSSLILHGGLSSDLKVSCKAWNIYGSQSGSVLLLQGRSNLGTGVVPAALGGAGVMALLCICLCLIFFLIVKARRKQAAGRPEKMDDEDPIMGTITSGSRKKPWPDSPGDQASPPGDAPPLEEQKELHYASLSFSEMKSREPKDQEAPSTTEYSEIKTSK

T2: human Siglec-14 (human, UniProt Q08ET2 17-396)
T2 construct: also called CHO-S14; CHO-S hSiglec-14
T2 sequence: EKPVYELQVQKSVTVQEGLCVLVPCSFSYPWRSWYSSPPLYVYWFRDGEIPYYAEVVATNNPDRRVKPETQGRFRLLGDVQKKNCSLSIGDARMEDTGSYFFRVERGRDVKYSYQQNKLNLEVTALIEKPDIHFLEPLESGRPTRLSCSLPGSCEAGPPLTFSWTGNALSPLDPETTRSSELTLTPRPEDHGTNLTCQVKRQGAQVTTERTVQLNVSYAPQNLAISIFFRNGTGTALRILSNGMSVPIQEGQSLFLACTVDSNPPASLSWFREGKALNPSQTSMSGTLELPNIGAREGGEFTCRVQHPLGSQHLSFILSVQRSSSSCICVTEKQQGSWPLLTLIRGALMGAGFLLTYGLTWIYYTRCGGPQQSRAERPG

T3: Histidine-tagged human Siglec-5 (NovoProtein) (human, UniProt O15389 17-434, limits assumed)
T3 construct: Bought soluble protein; also called His-tagged human Siglec-5; not shown: histidine tag
T3 sequence: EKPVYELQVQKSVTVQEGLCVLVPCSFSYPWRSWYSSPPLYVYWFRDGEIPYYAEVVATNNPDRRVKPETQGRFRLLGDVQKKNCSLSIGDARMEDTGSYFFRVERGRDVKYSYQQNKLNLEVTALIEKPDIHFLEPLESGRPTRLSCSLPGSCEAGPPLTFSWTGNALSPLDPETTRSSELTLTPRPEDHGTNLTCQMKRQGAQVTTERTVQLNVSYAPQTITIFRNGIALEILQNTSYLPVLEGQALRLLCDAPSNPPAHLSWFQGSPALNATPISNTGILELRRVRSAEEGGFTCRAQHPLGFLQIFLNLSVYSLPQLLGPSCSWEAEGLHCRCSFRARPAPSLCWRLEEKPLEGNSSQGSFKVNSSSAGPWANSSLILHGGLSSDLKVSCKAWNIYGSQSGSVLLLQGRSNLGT


Columns and labels:
human Siglec-5 = biological target: T1, human Siglec-5; assay: FACS titration, CHO-S hSiglec-5 cells, anti-human IgG secondary; y-axis Fold over isotype, x-axis Antibody (nM), log scale
Experimental: (§1) CHO cells were incubated with increasing concentrations of anti-Siglec-5 antibody, as indicated on the x-axis of each plot. The binding of anti-Siglec-5 antibodies to the surface of CHO cells was then measured by FACS. The y-axis provides the binding of each indicated anti-Siglec-5 antibody to the surface of CHO cells relative to hIgG1 isotype control antibodies. S5-174-H2L1 refers to antibody S5-174-H3; S5-174-H3L1 refers to antibody S5-174-H5; S5-174-H3L2 refers to antibody S5-174-H6; S5-174-H4L1 refers to antibody S5-174-H7; S5-174-H4L2 refers to antibody S5-174-H8; S5-G03-H2L1 refers to antibody S5-G-03-H4; S5-G03-H2L2 refers to antibody S5-G-03-H5; S5-G03-H3L1 refers to antibody S5-G-03-H7; S5-G03-H3L2 refers to antibody S5-G-03-H8; and S5-G03-H3L3 refers to antibody S5-G-03-H9.
(§2) Various anti-Siglec-5 antibodies of the present disclosure were evaluated for their ability to bind to CHO cells which were stably transfected with human Siglec-5 (CHO-S5) or human Siglec-14 (CHO-S14). Cells were incubated with various dilutions of anti-Siglec-5 antibodies for 30 minutes on ice in the dark, followed by a 30-minute incubation with a fluorescently conjugated anti-human IgG secondary antibody. Cells were then washed twice in FACS buffer (PBS+2% FBS, 2 mM EDTA), and flow cytometry was performed on a BD FACS Canto. Data were analyzed using FlowJo software (Ashland, Oreg.). In FIG. 9, hIgG1 refers to isotype control antibodies; S5-174-H2L1 refers to antibody S5-174-H3; S5-174-H3L1 refers to antibody S5-174-H5; S5-174-H3L2 refers to antibody S5-174-H6; S5-174-H4L1 refers to antibody S5-174-H7; S5-174-H4L2 refers to antibody S5-174-H8; S5-G03-H2L1 refers to antibody S5-G-03-H4; S5-G03-H2L2 refers to antibody S5-G-03-H5; S5-G03-H3L1 refers to antibody S5-G-03-H7; S5-G03-H3L2 refers to antibody S5-G-03-H8; and S5-G03-H3L3 refers to antibody S5-G-03-H9.

human Siglec-14 [1] = biological target: T2, human Siglec-14; assay: FACS titration, CHO-S hSiglec-14 cells, anti-human IgG secondary; y-axis Fold over isotype, x-axis Antibody (nM), log scale; the same flat line on CHO-S Parental cells
Experimental: as §1, §2

[2] = biological target: T3, Histidine-tagged human Siglec-5 …; assay: array SPR, antibody immobilized, His-tagged human Siglec-5 (0-500 nM) in solution; apparent affinity
Experimental: The apparent binding affinities of the anti-Siglec-5 antibodies were measured by array surface plasmon resonance (SPR), according to standard techniques (Abdiche, et al. (2016) MAbs 8:264-277). Briefly, anti-Siglec-5 antibodies were immobilized on a HC 30M chip at four different densities, at antibody concentration of 10 μg/mL, 2.5 μg/mL, 0.63 μg/mL, and 0.16 μg/mL. Varying concentrations (0-500 nM) of Histidine-tagged human Siglec-5 or cynomolgus Siglec-5 (NovoProtein) were then bound to the captured anti-Siglec-5 surface (5 min injection time, 15 min dissociation time) in HBS-EP⁺/1 mg/mL BSA running buffer. Kinetic analysis was performed using Carterra software to extract association and dissociation rate constants (kₐ and kd, respectively) for each antibody. Apparent affinity constants (KD) were calculated from the ratio kd/kₐ. None of the anti-Siglec-5 antibodies bound to cynomolgus Siglec-5 protein.

human Siglec-14 [3] = biological target: T2, human Siglec-14; assay: FACS, CHO cells stably transfected with human Siglec-14 (CHO-S14), fluorescent secondary antibody; y-axis Binding (Fold over background); antibody concentration not shown
Experimental: The anti-Siglec-5 antibodies were evaluated for their ability to bind to CHO cells which were stably transfected with human Siglec-5 (CHO-S5) or human Siglec-14 (CHO-S14). The anti-Siglec-5 antibodies were also evaluated for their ability to bind to primary human neutrophils. Cells were incubated with various dilutions of the anti-Siglec-5 antibodies for 30 minutes on ice in the dark, followed by a 30-minute incubation with a fluorescently-conjugated anti-human IgG secondary antibody. Cells were washed twice in FACS buffer (PBS+2% FBS, 2 mM EDTA), and flow cytometry was performed on a BD FACS Canto. Data were analyzed using FlowJo software (Ashland, Oreg.). In the figures, “hIgG1” and “mIgG1” refer to isotype control antibodies, and “S5/14 1A5” refers to a commercially available antibody that binds both Siglec-5 and Siglec-14 (BioLegend, clone 1A5).

binding result (human Siglec-5)	Kd [2]	koff [2]	kon [2]	binding result (human Siglec-14 [3])	Binder	binding result (human Siglec-14 [1])
binds					S5-G-03-H9 (antibody, V domains shown, Humanized variant of S5-G-03; also called S5-G03-H3L3) VH: EVQLLQSGGGLVQPGGSLRLSCAASGFTFSTYGMSWVRQAPGKGLELVATINSNGDNTYYADSVKGRFTISRDNSKNTLYLQMNSLRAEDTAVYYCARAWPSITTVFAPYTLDYWGQGTLVTVSS VL: DIQLTQSPSSLSASVGDRVTMTCRASSSVSSSFLHWYQQKPGKAPKLWIYSTSNLASGVPSRFSGSGSGTDYTLTISSVQPEDFATYYCQQYSGYPLTFGQGTKLEIK	no binding (tested: last point between 1 and 10 nM)
	≤ 0.42 nM	≤ 1e-05 s⁻¹	24000 M⁻¹ s⁻¹	no binding	S5-G-07 (antibody, V domains shown, Mouse-derived variable domains; expressed in mammalian cells as full antibody; hIgG1 isotype control; also called SG-5-07) VH: QAYLQQSGAELARPGASVKMSCKASGYTFSSYTMYWVKQRPGQGLEWIGYINPSSGYTEYNQKFKDKATLTADKSSSTAYMQLISLTSEDSAVYYCARSDSKGDYWGQGTTLTVSS VL: DVVMTQSPSSLSASLGERVSLTCRASQDIGNSLNWLQQEPDGTIKRLISATSSLDSGVPKRFSGSRSGSDYSLTISSLESEDFVDYYCLQYASSPLTFGAGTKLELK	
	79 nM	0.00068 s⁻¹	8600 M⁻¹ s⁻¹	no binding	S5-G-10 (antibody, V domains shown, Mouse-derived variable domains; expressed in mammalian cells as full antibody; hIgG1 isotype control) VH: QAYLQQSGAELVKPGASVKLSCKASGYIFTEYTIHWVKQRSGQGLEWIGWFYPGSGSIKYNEKFKDKATLTADKSSSTVYMELSRLTSEDSAVYFCATHERAAQAAWSAYWGQGTLVTVSA VL: DVQMNQSPASLSASVGETVTITCRASGNIHNYLAWYQQKQGKSPQLLVYNAKTLTDGVPSRFSGSGSGTQYSLKINTLQPEDFGSYYCQHFWSTPYTFGGGTKLEMK	

The remaining lines, values behind:

Binder	binding result (human Siglec-5)	Kd [2]	koff [2]	kon [2]	binding result (human Siglec-14 [3])	binding result (human Siglec-14 [1])
S5-172 (antibody, V domains shown, Mouse-derived variable domains; expressed in mammalian cells as full antibody; hIgG1 isotype control) VH: QAYLQQSGPELVKPGASVKVSCKASGYSLTDYNMYWVKQSHGKSLEWIGYIDSYNGGTRYNQKFKGKATLTVDKSSSTAFMHLNSLTSEDSAVYYCAREGFGYDDREWFAYWGQGTLVTVSA VL: DIVLTQTPLSLAVSVGEKVTMNCKSSQSLLYSTNQMTFLAWYQQKPGQSPKLLIYWASTRESGVPDRFTGSGSGTDFTLTISSVKAEDLAIYYCQQFYTYPFTFGSGTKLEIR		1.5 nM	0.00053 s⁻¹	350000 M⁻¹ s⁻¹	no binding	
S5-176 (antibody, V domains shown, Mouse-derived variable domains; expressed in mammalian cells as full antibody; hIgG1 isotype control) VH: QAYLQQSGPELVKPGASVKVSCKASGYSFTDYNIYWVKQSHGKSLEWIGYFDPYNGGTNYNQRFKDKATLTVDKSSSTAFMQLNSLTSEDSAVYYCAREGYGYDDREWFAYWGQGTLVTVSA VL: DIVMTQSPSSLAASVGEKVTMSCKSSQSLLYSTNQMTYLAWYQQKPGQSPKLLIFWASTRESGVPDRFTGSGSGTDFTLTISSVKAEDLAVYYCHQFYSYPFTFGSGTRWEIK		1.1 nM	0.00051 s⁻¹	470000 M⁻¹ s⁻¹	no binding	
S5-190 (antibody, V domains shown, Mouse-derived variable domains; same VH entry as S5-172; expressed in mammalian cells as full antibody; hIgG1 isotype control) VH: QAYLQQSGPELVKPGASVKVSCKASGYSLTDYNMYWVKQSHGKSLEWIGYIDSYNGGTRYNQKFKGKATLTVDKSSSTAFMHLNSLTSEDSAVYYCAREGFGYDDREWFAYWGQGTLVTVSA VL: DIQMTQTPSSLAVSVGEKVTLSCKSSQSLLYSTNQMNFLAWYQQKPGQSPKLLIYWASTRESGVPDRFAGSGSGTDFTLTISSVKAEDLAVYYCQQFYSYPFTFGSGTELEIK		0.85 nM	0.00046 s⁻¹	540000 M⁻¹ s⁻¹	no binding	
S5-175 (antibody, V domains shown, Mouse-derived variable domains; expressed in mammalian cells as full antibody; hIgG1 isotype control) VH: QAYLQQSGAVLARPGASVRMSCKASGYSFTSYYMHWVKQRPGQGLEWIGAIYPGNSDTSYNQKFKGKAKLTAVTSASTAYMEVSSLTNEDSAVYYCTPLVRPRPYGMDYWGQGTSVTVSS VL: DVVLTQSTSSLSASLGDRVTISCRASQDISNYLNWYQQKPDGTVKLLIYYTSRLHSGVPSRFSGSGSGTDYSLTISNLEQEDIATYFCQQGNTLPWTFGGGTKLEIK		15 nM	0.00045 s⁻¹	29000 M⁻¹ s⁻¹	no binding	
S5-174 (antibody, V domains shown, Mouse-derived variable domains; expressed in mammalian cells as full antibody; hIgG1 isotype control) VH: QAYLQQSGAELVKPGTSVKLSCKASGYTFTNYWMHWVKQRPGQGLEWVGEIDPSDGYVTYNQNFKGKATLTVDRSSSTAYMQLSSLTSEDSAVYYCAGVYYGNSIYYAMDYWGQGTSVTVSS VL: DIQMTQTRNFMSTSVGDRVNITCKATQDVGTAVAWYQVKPGQSPKLLIYWTSTRHTGVPDRFTGSGSGTDFTLTIKNVQSEDLADYFCQQYRSYPFTFGSGTKLEIK		1.7 nM	0.00043 s⁻¹	250000 M⁻¹ s⁻¹	no binding	

From patent US20210395361A1 (Alector, published 2021)
